In this test the target is NB-protein (BchN-BchB α2β2 heterotetramer), electron acceptor component of Rhodobacter sphaeroides DPOR (Rhodobacter sphaeroides). Description: cryo-EM structure.

Drawing on paper doi:10.1101/2024.04.26.590571, this text covers stoichiometry N (L-protein dimer per NB-protein tetramer) and stoichiometry N (L-protein dimers per NB-protein tetramer) for one substance.

L-protein (BchL homodimer), electron donor component of Rhodobacter sphaeroides DPOR, sequence (Q9RFD6 whole entry): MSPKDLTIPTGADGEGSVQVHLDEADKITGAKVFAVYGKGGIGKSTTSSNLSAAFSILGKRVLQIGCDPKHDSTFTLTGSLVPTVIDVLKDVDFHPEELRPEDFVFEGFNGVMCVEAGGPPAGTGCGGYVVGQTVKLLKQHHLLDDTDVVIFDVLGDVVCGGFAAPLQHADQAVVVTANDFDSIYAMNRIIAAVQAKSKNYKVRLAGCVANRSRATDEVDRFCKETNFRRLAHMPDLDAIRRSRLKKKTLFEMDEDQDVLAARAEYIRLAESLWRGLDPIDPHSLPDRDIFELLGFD

Substance “L-protein (BchL homodimer), electron donor component of Rhodobacter sphaeroides DPOR (from UniProt Q9RFD6 1-297) (enzyme)” gave a stoichiometry N (L-protein dimer per NB-protein tetramer) of 1 and a stoichiometry N (L-protein dimers per NB-protein tetramer) of 2.
